Patent US20230203162A1 (NUMAB THERAPEUTICS, published 2023)

Experiments:
[1] = target: T1, plasma-membranous human MSLN on cell lines (H226, HPAC, H292, OVCAR-3, MeT-5A) (human, UniProt Q13421 296-598); experiment: cell-based or functional assay
[2] = target: T1, plasma-membranous human MSLN on cell …; experiment: flow cytometry on Met-5A cells, protein L-PE, 4PL fit
[3] = target: T1, plasma-membranous human MSLN on cell …; experiment: flow cytometry on H226 cells
[4] = target: T1, plasma-membranous human MSLN on cell …; experiment: cell-based or functional assay; remark: listed apart in the source
[5] = target: T2, human recombinant CD3ε protein (Sino Biological) (human, UniProt P07766 23-126); experiment: SPR, CD3ε amine-coupled to CM5, antibody injected
T2 construct: Bought protein; also called recombinant human CD3ε; human CD3ε

[6] = target: T1, plasma-membranous human MSLN on cell …; experiment: cell-based or functional assay; remark: listed apart in the source
[7] = target: T1, plasma-membranous human MSLN on cell …; experiment: cell-based or functional assay; remark: listed apart in the source
[8] = target: T2, human recombinant CD3ε protein (Sino …); experiment: SPR, CD3ε amine-coupled to CM5, antibody injected; footnote: kd1 of a two-state fitting model
[9] = target: soluble mesothelin (sMSLN); experiment: cell-based or functional assay
[10] = target: T1, plasma-membranous human MSLN on cell …; experiment: cell-based or functional assay; remark: listed apart in the source
[11] = target: T1, plasma-membranous human MSLN on cell …; experiment: flow cytometry on HPAC cells, protein L-PE, 4PL fit
[12] = target: T1, plasma-membranous human MSLN on cell …; experiment: flow cytometry on H292 cells
[13] = target: T1, plasma-membranous human MSLN on cell …; experiment: cell-based or functional assay; remark: listed apart in the source
[14] = target: T1, plasma-membranous human MSLN on cell …; experiment: flow cytometry on H226 cells, protein L-PE, 4PL fit
[15] = target: T3, recombinant human MSLN (purchased from Peprotech) (human, UniProt Q13421 296-598, limits assumed); experiment: SPR (Biacore T200), human MSLN; which of the two formats (MSLN immobilized / antibody captured) not given
T3 construct: Bought protein; also called recombinant human mesothelin

[16] = target: T1, plasma-membranous human MSLN on cell …; experiment: flow cytometry on HPAC cells
[17] = target: T2, human recombinant CD3ε protein (Sino …); experiment: SPR, CD3ε amine-coupled to CM5, antibody injected; footnote: ka1 of a two-state fitting model
[18] = target: T1, plasma-membranous human MSLN on cell …; experiment: flow cytometry on H292 cells, protein L-PE, 4PL fit
[19] = target: T4, human serum albumin (hSA, Sigma-Aldrich A3782) (human, UniProt P02768 25-609); experiment: SPR, albumin immobilized on CM5, scFv as analyte, multi-cycle, 1:1 Langmuir, pH 5.5
[20] = target: T5, mouse serum albumin (mSA, Sigma-Aldrich A3559) (mouse, UniProt P07724 25-608); experiment: as above
[21] = target: T6, cynomolgus monkey serum albumin (cSA, Molecular Innovations CYSA) (cynomolgus monkey); experiment: as above
[22] = target: T5, mouse serum albumin (mSA, Sigma-Aldrich …); experiment: SPR, albumin immobilized on CM5, scFv as analyte, 1:1 fit, pH 5.5; biphasic binding corrected with bulk correction
[23] = target: T4, human serum albumin (hSA, Sigma-Aldrich …); experiment: SPR, albumin immobilized on CM5, scFv as analyte, multi-cycle, 1:1 Langmuir, pH 7.4
[24] = target: T5, mouse serum albumin (mSA, Sigma-Aldrich …); experiment: as above
[25] = target: T6, cynomolgus monkey serum albumin (cSA, …); experiment: as above
[26] = target: T5, mouse serum albumin (mSA, Sigma-Aldrich …); experiment: SPR, albumin immobilized on CM5, scFv as analyte, 1:1 fit, pH 7.4; biphasic binding corrected with bulk correction

B1: PRO2000 (MATCH4, biMSLNhigh KD×CD3×hSA) (other)
chain 1: DIQMTQSPSSLSASVGDRVTITCQASQNIYSNLAWYQQKPGKAPKLLIYDASDLASGVPSRFSGSGSGTDFTLTISSLQPEDFATYYCQQVRSSSDIDNPFGTGTKVTVLGGGGGSGGGGSGGGGSGGGGSQVQLVESGGGLVQPGGSLRLSCAASGFSLSSYAMGWVRQAPGKGLEWIGYISTINNTYYASWAKGRFTISRDNSKNTVYLQMNSLRAEDTAVYYCAREIRSGWVDYGFSIWGQGTLVTVSSGGGGSGGGGSEVQLVESGGGLVQPGGSLRLSCAASGFSLSSYDMSWVRQAPGKGLAWIGASYASGPTYYASWAKGRFTISRDNSKNTVYLQMNSLRAEDTATYFCARGGWTGTSHSNIWGQGTLVTVSSGGGSGGGSEVQLVESGGGLVQPGGSLRLSCAASGFSFSSSYWICWVRQAPGKCLEWVGCVFTGDGTTYYASWAKGRFTISRDNSKNTVYLQMNSLRAEDTATYFCARPVSVYYYGMDLWGQGTLVTVSS
chain 2: DIQMTQSPSSLSASVGDRVTITCQASQNIYSNLAWYQQKPGKAPKLLIYDASDLASGVPSRFSGSGSGTDFTLTISSLQPEDFATYYCQQVRSSSDIDNPFGTGTKVTVLGGGGGSGGGGSGGGGSGGGGSQVQLVESGGGLVQPGGSLRLSCAASGFSLSSYAMGWVRQAPGKGLEWIGYISTINNTYYASWAKGRFTISRDNSKNTVYLQMNSLRAEDTAVYYCAREIRSGWVDYGFSIWGQGTLVTVSSGGGGSGGGGSDVVMTQSPSSLSASVGDRVTITCQASQIISSRSAWYQQKPGQPPKLLIYQASKLASGVPSRFSGSGSGTDFTLTISSLQPEDFATYYCQCTYIDSNFGAFGCGTKLTVLGGGSGGSDIQMTQSPSSLSASVGDRVTITCQSSQSVFSNNYLAWFQQKPGQSPKRLIYSASTLASGVPSRFSGSGSGTDFTLTISSLQPEDFATYYCLGSYACSSADCYVFGTGTKVTVLG
notes: Heterodimer; also called biMSLN.CD3
EC50 target cell killing, H226 cells, 100 ng/ml sMSLN [1]: 3.45 pM
EC50 target cell killing, H226 cells, no sMSLN [1]: 0.7 pM
max. killing, H226 cells, 100 ng/ml sMSLN [1]: 58.5%
max. killing, H226 cells, no sMSLN [1]: 49.4%
EC50 [2]: 128 pM
max. binding (MFI) [2]: 7950 MFI
fold binding against PRO1872 [3]: 3 fold
EC50 CD8+ T cell activation, Met-5A cells [4]: 544 pM
EC50 target cell killing, H226 cells (flow cytometry cytotoxicity assay with PBMCs) [4]: 0.07 pM
EC50 target cell killing, Met-5A cells [4]: 145 pM
Kd [5]: 20000 pM
EC50 H226 target cell killing, 50 ng/ml soluble mesothelin [6]: 31.2 pM
EC50 H226 target cell killing, 500 ng/ml soluble mesothelin [6]: 165 pM
EC50 H226 target cell killing, no mesothelin [6]: 9.73 pM
EC50 CD8+ T cell activation, H292 cells [7]: 114 pM
EC50 CD8+ T cell activation, HPAC cells [7]: 12.2 pM
EC50 target cell killing, H292 cells [7]: 652 pM
EC50 target cell killing, HPAC cells [7]: 40.8 pM
koff [8]: 0.00391 s⁻¹
fold reduction of H226 killing potency with 500 ng/ml sMSLN [9]: 17 fold
shift of H226 killing potency with 100 ng/ml sMSLN [9]: 5 fold
fold CD8+ T cell activation potency against PRO1872, HPAC cells [10]: 4 fold
fold killing potency against PRO1872, H226 cells [10]: 75 fold
EC50 [11]: 1480 pM
max. binding (MFI) [11]: 17500 MFI
fold lower binding against PRO1872 [12]: 2 fold
EC50 CD8+ T cell activation with H226 cells, 50 ng/ml MSLN [13]: 7.85 pM
EC50 CD8+ T cell activation with H226 cells, 500 ng/ml MSLN [13]: 42.4 pM
EC50 CD8+ T cell activation with H226 cells, no MSLN [13]: 1.99 pM
EC50 [14]: 659 pM
max. binding (MFI) [14]: 362000 MFI
Kd [15]: 1060 pM
koff [15]: 0.000421 s⁻¹
kon [15]: 398000 M⁻¹ s⁻¹
fold binding against PRO1872 [16]: 1.5 to 2 fold
kon [17]: 117000 M⁻¹ s⁻¹
EC50 [18]: 1030 pM
max. binding (MFI) [18]: 6960 MFI

B2: anti-hSA scFv PRO2155 (domain 19-04-A10-sc02) (scFv, V domains shown)
VH: EVQLVESGGGLVQPGGSLRLSCAASGFSLSSYAMNWVRQAPGKGLEWIGHINAGDIAYYATWAKGRFTISRDNSKNTVYLQMNSLRAEDTAVYFCARGAGGFSTGPFKLWGQGTLVTVSS
VL: AFELTQSPSSLSASVGDRVTITCQASESINSRLAWYQQKPGQPPKLLIYDASDLTSGVPSRFSGSGSGTDFTLTISSLQPEDFATYYCQGYGGSSTTTFGGGTKLTVLG
notes: Tested as scFv
Kd [19]: 3300 pM
koff [19]: 0.003 s⁻¹
kon [19]: 900000 M⁻¹ s⁻¹
koff [20]: 0.0002 s⁻¹
kon [20]: 78000 M⁻¹ s⁻¹
Kd [21]: 2300 pM
koff [21]: 0.0021 s⁻¹
kon [21]: 910000 M⁻¹ s⁻¹
Kd [22]: 2500 pM
Kd [23]: 2200 pM
koff [23]: 0.0012 s⁻¹
kon [23]: 550000 M⁻¹ s⁻¹
koff [24]: 0.00029 s⁻¹
kon [24]: 32000 M⁻¹ s⁻¹
Kd [25]: 1600 pM
koff [25]: 0.00091 s⁻¹
kon [25]: 580000 M⁻¹ s⁻¹
Kd [26]: 9000 pM
